Measurements reported in US20130344053A1, “Methods of Modifying Insulin Signaling Using Biliverdin Reductase (BVR) and BVR Derived Peptides” (University of Rochester, priority 2010, published 2013).

Experiments:
[1] = test system: insulin receptor substrate-1 (IRS-1) peptide Y^608
[2] = test system: rat smooth muscle cells (PAC1); test: Glucose uptake in PAC1 cells (IGF-dependent); type: cell-based; conditions: myristoylated peptide 2 h, then IGF-1 50 ng/ml 10 min
Protocol: Glucose uptake was tested as described infra. Cells were starved in low glucose serum-depleted DMEM for 20 hours prior to transfer to PBS containing CaCl2, MgCl2. After 2 hrs myristoylated peptides were added to the medium for 2 hours. Thereafter, IGF-1 (50 ng/ml) or insulin (100 nM) was added (10 min) and glucose uptake was tested for 3 min in the presence of methyl-D-glucose,3-O-[methyl-3H]. Subsequently cells were washed 3 times in cold PBS and solubilized in NaOH (0.05 mM). Aliquots were measured for radioactivity. Non-specific binding or diffusion were tested by addition of 300 mM glucose to the cells. This value was deducted from the total counts (on the average <20%) and results were normalized for protein concentration.
(§1) FIGS. 15A-B show the effect of hBVR-based peptides on IGF-dependent glucose uptake in rat smooth muscle cells (PAC1) (FIG. 15A) and insulin-dependent glucose uptake in human epithelial kidney (HEK) cells (FIG. 15B). Cells were treated as described for FIG. 14 and glucose uptake was measured as described infra.
(§2) The therapeutic utility of various BVR peptides with regard to their ability to modify insulin and insulin growth factor (IGF) mediated cellular glucose uptake was evaluated. Human embryonic kidney cells (HEK293) or rat aortic smooth muscle cells (PAC) were starved in low glucose serum-depleted DMEM for twenty hours prior to transfer to PBS containing CaCl2, MgCl2. After two hours, myristoylated peptides were added to the medium for two additional hours. Thereafter, IGF-1 (50 ng/ml) or insulin (100 nM) was added (10 min) and glucose uptake was tested for three minutes in the presence of methyl-D-glucose,3-O-[methyl-3H]. Subsequently, cells were washed three times in cold PBS and solubilized in NaOH (0.05 mM). Aliquots were measured for radioactivity. Non-specific binding or diffusion was tested by addition of 300 mM glucose to the cells. This value was deducted from the total counts (on the average <20%) and results were normalized for protein concentration.

[3] = test system: human epithelial kidney (HEK) cells; test: Insulin-dependent glucose uptake in HEK cells; type: cell-based; conditions: myristoylated peptide 2 h, then insulin 100 nM 10 min
Protocol: as §1, §2

[4] = test system: 293A cells; test: Insulin-mediated glucose uptake (2DG) in 293A cells; type: cell-based, human; conditions: insulin 15 min, 2DG 15 min, vs controls infected with vector alone, p≦0.05
Protocol: FIG. 12A-D illustrates that “knock-down” BVR and Y^198 detection increased glucose uptake into 293A cells upon insulin induction. As shown in the graph of FIG. 12A, insulin treatment increases BVR activity. 293A cells were treated with insulin (50 nM) and subsequently used at indicated time points for BVR activity measurement. […] Purified BVR was phosphorylated by IRK for the indicated periods. Reactions were terminated by diluting with PBS and freezing at −20° C. BVR activity was determined as in FIG. 12A, and normalized to that of the control (43.8 μmol per min per mg). […] 293A cells were incubated with insulin and after 8 min or 30 min, subjected to immunoprecipitation using anti-human BVR antibodies. The phosphorylated BVR was visualized by immunoblotting using anti-tyrosine antibodies. ECL system was used for visualization of phosphorylated BVR. […]
Glucose uptake was assessed by measuring 2-deoxy 1-[^3H] glucose (2DG) absorption as described by (Braiman et al. (Mol. Endocrinol. 13:2002-12 (1999)), which is hereby incorporated by reference), with minor modifications. […] Radioactivity was measured and data was normalized to protein concentration. Non-specific uptake was determined in the presence of 200 mM of glucose and was subtracted from the total uptake. […]

[5] = test system: human BVR; test: BVR autophosphorylation; type: biochemical; conditions: pH 8.4, 30 mM MnCl2, 2 h at 30° C.
Protocol: In FIG. 9A, effect of tyrosine mutations of BVR on its autophosphorylation is shown. Human wtBVR and BVR with mutations in tyrosine were used in the experiment to determine autophosphorylation of BVR. The reactions were performed as described in the Examples. FIG. 9B is a graph showing that BVR tyrosine kinase activity was checked by incubating 5 μg purified BVR with 5 μg Raytide in 50 μl kinase buffer containing 10 μM labeled ATP for 2 h at 30° C. The aliquots of the reaction were transferred onto P81 Whatman filters and radioactivity due to phosphorylation was measured using a scintillation counter.
FIGS. 10A-B illustrate that autophosphorylation of BVR is an Mn^+2 dependant kinase reaction. […] The effects of different metal ions (30 mM MnCl2, 20 mM MgCl2, 20 mM CaCl2, 20 mM Zn acetate) and their combinations were analyzed as indicated in the text. […] Phosphorylation of wtBVR by IRK in the presence of tyrosine kinase inhibitor genestein (200 μM); DMSO was used as the vehicle for genestein and was included in the control reaction mixture. The reactions were carried out in HEPES buffer (pH 8.0) in the presence of 20 mM MgCl2 as described in the Examples.
To detect autophosphorylation of BVR, GST-hBVR of wild type (wt) and mutant variants were incubated in 50 mM HEPES buffer (pH 8.4) in the presence of 30 mM MnCl2 and 1 mM DTT for 2 h at 30° C. The reaction was started with the addition of 10 μM ATP labeled with 10 μCi [γ-^32P]-ATP and was stopped with the addition of Laemmli sample buffer. Samples were boiled for 3 min and applied to a 8% SDS-PAGE gels, transferred to a PVDF membrane, and then visualized by autoradiography. […] The reaction was started with the addition of ATP and terminated by adding 120 μl 10% H3PO4. 100 μl aliquots were directly transferred to P81 Whatman filters which were subsequently washed extensively in 0.75% phosphoric acid at room temperature. Finally, the filters were submerged in acetone for 5 min, dried, and retained counts were measured using a Beckman LS 6500 liquid scintillation counter (Beckman Coulter, Fullerton, Calif.).

[6] = target: T1, insulin receptor kinase (IRK) (Homo sapiens, UniProt P06213); test: BVR phosphorylation by the insulin receptor tyrosine kinase (IRK); type: biochemical; conditions: tyrosine point mutant as IRK substrate, 2 h at 30° C.
T1 construct: GST-hBVR fusion protein and the 48 kDa cytoplasmic domain of the β-subunit of IRK; purchased Biomol International (Plymouth, Pa.)
Protocol: FIGS. 7A-B illustrate BVR as a substrate for insulin receptor kinase. […] 10 μg purified wtBVR was incubated in 100 μl kinase assay buffer (pH 8.0) containing 0.1 μg IRK, 10 μM ATP, and 20 μCi [^32P]-ATP at 25° C. up to 4 h. The reaction was terminated by the addition of Laemmli buffer at different points of time as indicated. Samples were separated using 8% SDS-PAGE gel and transferred onto PVDF filter, and phosphorylated protein bands were visualized by autoradiography. […] From left to right lane 1, wtBVR plus IRK in the presence of 50 mM EDTA (pH 8.0); lane 2, wtBVR plus IRK; lane 3, wtBVR in the absence of IRK. The reaction mixtures were subjected to SDS-PAGE electrophoresis and transferred onto a polyvinylidene fluoride (“PVDF”) filter. The blot was immuno-stained with anti-phosphotyrosine antibodies and ECL detection system was used to visualize phosphorylated tyrosines. […] In FIG. 8A the Y^198 residue of BVR is phosphorylated by IRK. Purified wtBVR and Y^198 mutant BVR were incubated with IRK at 30° C. for 2 h. Samples were subjected to SDS-PAGE electrophoresis and processed as described in FIG. 8B. FIG. 8B is a time course of Y^198 mutant BVR phosphorylation by IRK. A purified preparation of human BVR that carried Y^198 mutation was incubated with IRK for up to 3 h as described in FIG. 7A. Samples taken at the indicated time-points were analyzed for detection of phosphorylated proteins as above. […] Subsequently, samples were subjected to SDS-PAGE, stained with Coomassie blue and visualized bands were excised and used for measurement of radioactive content. The experiments were repeated three times. […] The indicated double mutants of BVR were used as substrates for IRK and analysis was carried out as in FIG. 8A. FIGS. 10A-B illustrate that autophosphorylation of BVR is an Mn^+2 dependant kinase reaction. […] The effects of different metal ions (30 mM MnCl2, 20 mM MgCl2, 20 mM CaCl2, 20 mM Zn acetate) and their combinations were analyzed as indicated in the text. […] The reactions were carried out in HEPES buffer (pH 8.0) in the presence of 20 mM MgCl2 as described in the Examples. Phosphorylation of BVR by IRK was examined using GST-hBVR fusion protein and the 48 kDa cytoplasmic domain of the β-subunit of IRK. BVR (5 μg) was incubated in 50 μl of IRK kinase buffer containing 50 mM HEPES (pH 8.0), 20 mM MgCl2, 1 mM DTT in the presence of 0.05 μg IRK and 10 μM ATP labeled with 10 μCi [γ-^32P]-ATP. The reaction was started with the addition of labeled ATP and incubated for 2-4 h. Reactions were terminated by addition of Laemmli sample buffer and boiled for 3 min. Samples were subjected to 8% SDS-PAGE and transferred to PVDF membranes for autoradiography.

T1 sequence (P06213 980-1382 limits assumed): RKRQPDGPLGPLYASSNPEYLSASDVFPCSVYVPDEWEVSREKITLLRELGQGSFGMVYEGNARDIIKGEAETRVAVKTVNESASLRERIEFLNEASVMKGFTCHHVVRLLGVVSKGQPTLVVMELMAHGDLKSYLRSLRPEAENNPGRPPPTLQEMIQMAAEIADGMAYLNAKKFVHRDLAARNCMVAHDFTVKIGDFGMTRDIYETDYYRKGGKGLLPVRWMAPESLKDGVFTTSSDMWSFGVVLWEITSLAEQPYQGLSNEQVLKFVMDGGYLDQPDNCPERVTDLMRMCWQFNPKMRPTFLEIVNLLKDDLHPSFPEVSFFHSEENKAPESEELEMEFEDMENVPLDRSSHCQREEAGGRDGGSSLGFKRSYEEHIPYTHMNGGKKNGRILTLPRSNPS

GST-hBVR G17 mutant (GVGRA to GVARA), ATP binding domain mutant
IRS phosphorylation by BVR (kinase assay) [1]: G^17 mutation, for the most part, prevented IRS phosphorylation by BVR

KRNRYLSF (Biliverdin reductase derived peptide) [hBVR peptide, amino acids 224-231 of BVR]
IGF-mediated cellular glucose uptake in PAC1 cells [2]: inhibit IGF-mediated cellular glucose uptake | insulin mediated cellular glucose uptake in HEK cells [3]: antagonizing insulin mediated cellular glucose uptake

siBVR: human BVR siRNA, target nt96-nt116, expressed from retroviral vector pSuper-Retro-siBVR (chain 1 UCCUCAGCGUUCCUGAACCUG; chain 2 AGGAGUCGCAAGGACUUGGAC)
insulin-mediated glucose uptake by cells [4]: significantly increased insulin-mediated glucose uptake

B1: Y^198: human BVR point mutant DQYMK to DQFMK (protein, UniProt P53004 3-296, looked up, variant Y198F)
Biliverdin reductase A: AEPERKFGVVVVGVGRAGSVRMRDLRNPHPSSAFLNLIGFVSRRELGSIDGVQQISLEDALSSQEVEVAYICSESSSHEDYIRQFLNAGKHVLVEYPMTLSLAAAQELWELAEQKGKVLHEEHVELLMEEFAFLKKEVVGKDLLKGSLLFTAGPLEEERFGFPAFSGISRLTWLVSLFGELSLVSATLEERKEDQFMKMTVCLETEKKSPLSWIEEKGPGLKRNRYLSFHFKSGSLENVPNVGVNKNIFLKDQNIFVQKLLGQFSEKELAAEKKRILHCLGLAEEIQKYCCSRK
insulin-mediated glucose uptake by cells [4]: increased significantly | autophosphorylation of BVR (mutants) [5]: did not result in significant changes in autophosphorylation of BVR | reduction of extent of BVR phosphorylation by IRK compared with wtBVR [6]: ~70%
